Experimental data published in patent US20210309732A1 (ELIXIRON IMMUNOTHERAPEUTICS HONG KONG, published 2021).

Molecular target: T1, recombinant human GM-CSF (human, UniProt P04141 18-144)
Assay: cell-based or functional assay

T1 sequence (P04141 18-144 limits assumed): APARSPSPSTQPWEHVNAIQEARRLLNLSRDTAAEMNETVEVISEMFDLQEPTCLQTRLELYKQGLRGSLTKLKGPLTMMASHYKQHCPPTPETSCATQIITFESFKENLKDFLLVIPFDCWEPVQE

IC50 (M), inhibition of GM-CSF induced TF-1 cell proliferation (FIG. 5B) [M] | Binder
7.67e-09 | 1D2 SDR mutant HQ105N (antibody, IgG1, V domains shown, also called X7 N) VH: QVQLVQSGAEVKKPGASVKVSCEASGYTFTDKYLHWVRQAPGQGLEWMAWINPKSGGTFYAQNFKGRVTVTRDTSINTAYLELTSLRLDDTSTYYCARGRDYYDNGAADLWGQGTMVTVSS VL: DIQLTQSPSSLSASVGDRVTITCRASQGINSVLAWYQQKPGKAPKLLLYAASKLESGVPSRFSGSGSGTDYTLTISSLQPEDFGTYYCQQYYSPVRTFGQGTKVEIKR

Molecular target: T1, recombinant human GM-CSF
Assay: ELISA on coated rhGM-CSF, UBA relative to 1D2
Procedure, shortened: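 Antibody clones carrying SDR point mutants in VH or VL, each paired with the wild-type chain, were expressed in HEK293 cells. Culture media diluted 1:12000 were bound to plates coated with rhGM-CSF at 1 μg/mL for 1 h at room temperature. Detection used HRP anti-human antibody and Amplex Red fluorescence (Ex530/Em590), with UBA = fluorescence signal/dilution factor.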

binding affinity % of 1D2 [%] | Binder
156 | 1D2 SDR mutant HQ105N (antibody, IgG1, V domains shown, also called X7 N) VH: QVQLVQSGAEVKKPGASVKVSCEASGYTFTDKYLHWVRQAPGQGLEWMAWINPKSGGTFYAQNFKGRVTVTRDTSINTAYLELTSLRLDDTSTYYCARGRDYYDNGAADLWGQGTMVTVSS VL: DIQLTQSPSSLSASVGDRVTITCRASQGINSVLAWYQQKPGKAPKLLLYAASKLESGVPSRFSGSGSGTDYTLTISSLQPEDFGTYYCQQYYSPVRTFGQGTKVEIKR
40 | 1D2 SDR mutant LV95E (antibody, IgG1, V domains shown, also called X10 E) VH: QVQLVQSGAEVKKPGASVKVSCEASGYTFTDKYLHWVRQAPGQGLEWMAWINPKSGGTFYAQNFKGRVTVTRDTSINTAYLELTSLRLDDTSTYYCARGRDYYDQGAADLWGQGTMVTVSS VL: DIQLTQSPSSLSASVGDRVTITCRASQGINSVLAWYQQKPGKAPKLLLYAASKLESGVPSRFSGSGSGTDYTLTISSLQPEDFGTYYCQQYYSPERTFGQGTKVEIKR
41 | 1D2 SDR mutant LV95L (antibody, IgG1, V domains shown, also called X10 L) VH: QVQLVQSGAEVKKPGASVKVSCEASGYTFTDKYLHWVRQAPGQGLEWMAWINPKSGGTFYAQNFKGRVTVTRDTSINTAYLELTSLRLDDTSTYYCARGRDYYDQGAADLWGQGTMVTVSS VL: DIQLTQSPSSLSASVGDRVTITCRASQGINSVLAWYQQKPGKAPKLLLYAASKLESGVPSRFSGSGSGTDYTLTISSLQPEDFGTYYCQQYYSPLRTFGQGTKVEIKR
47 | 1D2 SDR mutant LV95D (antibody, IgG1, V domains shown, also called X10 D) VH: QVQLVQSGAEVKKPGASVKVSCEASGYTFTDKYLHWVRQAPGQGLEWMAWINPKSGGTFYAQNFKGRVTVTRDTSINTAYLELTSLRLDDTSTYYCARGRDYYDQGAADLWGQGTMVTVSS VL: DIQLTQSPSSLSASVGDRVTITCRASQGINSVLAWYQQKPGKAPKLLLYAASKLESGVPSRFSGSGSGTDYTLTISSLQPEDFGTYYCQQYYSPDRTFGQGTKVEIKR
581 | 1D2 SDR mutant LV32P (antibody, IgG1, V domains shown, also called X8 P) VH: QVQLVQSGAEVKKPGASVKVSCEASGYTFTDKYLHWVRQAPGQGLEWMAWINPKSGGTFYAQNFKGRVTVTRDTSINTAYLELTSLRLDDTSTYYCARGRDYYDQGAADLWGQGTMVTVSS VL: DIQLTQSPSSLSASVGDRVTITCRASQGINSPLAWYQQKPGKAPKLLLYAASKLESGVPSRFSGSGSGTDYTLTISSLQPEDFGTYYCQQYYSPVRTFGQGTKVEIKR
110 | 1D2 SDR mutant LV32E (antibody, IgG1, V domains shown, also called X8 E) VH: QVQLVQSGAEVKKPGASVKVSCEASGYTFTDKYLHWVRQAPGQGLEWMAWINPKSGGTFYAQNFKGRVTVTRDTSINTAYLELTSLRLDDTSTYYCARGRDYYDQGAADLWGQGTMVTVSS VL: DIQLTQSPSSLSASVGDRVTITCRASQGINSELAWYQQKPGKAPKLLLYAASKLESGVPSRFSGSGSGTDYTLTISSLQPEDFGTYYCQQYYSPVRTFGQGTKVEIKR
46 | 1D2 SDR mutant LV95P (antibody, IgG1, V domains shown, also called X10 P) VH: QVQLVQSGAEVKKPGASVKVSCEASGYTFTDKYLHWVRQAPGQGLEWMAWINPKSGGTFYAQNFKGRVTVTRDTSINTAYLELTSLRLDDTSTYYCARGRDYYDQGAADLWGQGTMVTVSS VL: DIQLTQSPSSLSASVGDRVTITCRASQGINSVLAWYQQKPGKAPKLLLYAASKLESGVPSRFSGSGSGTDYTLTISSLQPEDFGTYYCQQYYSPPRTFGQGTKVEIKR
45 | 1D2 SDR mutant LV95R (antibody, IgG1, V domains shown, also called X10 R) VH: QVQLVQSGAEVKKPGASVKVSCEASGYTFTDKYLHWVRQAPGQGLEWMAWINPKSGGTFYAQNFKGRVTVTRDTSINTAYLELTSLRLDDTSTYYCARGRDYYDQGAADLWGQGTMVTVSS VL: DIQLTQSPSSLSASVGDRVTITCRASQGINSVLAWYQQKPGKAPKLLLYAASKLESGVPSRFSGSGSGTDYTLTISSLQPEDFGTYYCQQYYSPRRTFGQGTKVEIKR
46 | 1D2 SDR mutant LV95C (antibody, IgG1, V domains shown, also called X10 C) VH: QVQLVQSGAEVKKPGASVKVSCEASGYTFTDKYLHWVRQAPGQGLEWMAWINPKSGGTFYAQNFKGRVTVTRDTSINTAYLELTSLRLDDTSTYYCARGRDYYDQGAADLWGQGTMVTVSS VL: DIQLTQSPSSLSASVGDRVTITCRASQGINSVLAWYQQKPGKAPKLLLYAASKLESGVPSRFSGSGSGTDYTLTISSLQPEDFGTYYCQQYYSPCRTFGQGTKVEIKR
297 | 1D2 SDR mutant LV32G (antibody, IgG1, V domains shown, also called X8 G) VH: QVQLVQSGAEVKKPGASVKVSCEASGYTFTDKYLHWVRQAPGQGLEWMAWINPKSGGTFYAQNFKGRVTVTRDTSINTAYLELTSLRLDDTSTYYCARGRDYYDQGAADLWGQGTMVTVSS VL: DIQLTQSPSSLSASVGDRVTITCRASQGINSGLAWYQQKPGKAPKLLLYAASKLESGVPSRFSGSGSGTDYTLTISSLQPEDFGTYYCQQYYSPVRTFGQGTKVEIKR
146 | 1D2 SDR mutant LP94R (antibody, IgG1, V domains shown, also called X9 R) VH: QVQLVQSGAEVKKPGASVKVSCEASGYTFTDKYLHWVRQAPGQGLEWMAWINPKSGGTFYAQNFKGRVTVTRDTSINTAYLELTSLRLDDTSTYYCARGRDYYDQGAADLWGQGTMVTVSS VL: DIQLTQSPSSLSASVGDRVTITCRASQGINSVLAWYQQKPGKAPKLLLYAASKLESGVPSRFSGSGSGTDYTLTISSLQPEDFGTYYCQQYYSRVRTFGQGTKVEIKR
167 | 1D2 SDR mutant LV32L (antibody, IgG1, V domains shown, also called X8 L) VH: QVQLVQSGAEVKKPGASVKVSCEASGYTFTDKYLHWVRQAPGQGLEWMAWINPKSGGTFYAQNFKGRVTVTRDTSINTAYLELTSLRLDDTSTYYCARGRDYYDQGAADLWGQGTMVTVSS VL: DIQLTQSPSSLSASVGDRVTITCRASQGINSLLAWYQQKPGKAPKLLLYAASKLESGVPSRFSGSGSGTDYTLTISSLQPEDFGTYYCQQYYSPVRTFGQGTKVEIKR
114 | 1D2 SDR mutant LV32Y (antibody, IgG1, V domains shown, also called X8 Y) VH: QVQLVQSGAEVKKPGASVKVSCEASGYTFTDKYLHWVRQAPGQGLEWMAWINPKSGGTFYAQNFKGRVTVTRDTSINTAYLELTSLRLDDTSTYYCARGRDYYDQGAADLWGQGTMVTVSS VL: DIQLTQSPSSLSASVGDRVTITCRASQGINSYLAWYQQKPGKAPKLLLYAASKLESGVPSRFSGSGSGTDYTLTISSLQPEDFGTYYCQQYYSPVRTFGQGTKVEIKR
128 | 1D2 SDR mutant LV32H (antibody, IgG1, V domains shown, also called X8 H) VH: QVQLVQSGAEVKKPGASVKVSCEASGYTFTDKYLHWVRQAPGQGLEWMAWINPKSGGTFYAQNFKGRVTVTRDTSINTAYLELTSLRLDDTSTYYCARGRDYYDQGAADLWGQGTMVTVSS VL: DIQLTQSPSSLSASVGDRVTITCRASQGINSHLAWYQQKPGKAPKLLLYAASKLESGVPSRFSGSGSGTDYTLTISSLQPEDFGTYYCQQYYSPVRTFGQGTKVEIKR
109 | 1D2 SDR mutant LV32F (antibody, IgG1, V domains shown, also called X8 F) VH: QVQLVQSGAEVKKPGASVKVSCEASGYTFTDKYLHWVRQAPGQGLEWMAWINPKSGGTFYAQNFKGRVTVTRDTSINTAYLELTSLRLDDTSTYYCARGRDYYDQGAADLWGQGTMVTVSS VL: DIQLTQSPSSLSASVGDRVTITCRASQGINSFLAWYQQKPGKAPKLLLYAASKLESGVPSRFSGSGSGTDYTLTISSLQPEDFGTYYCQQYYSPVRTFGQGTKVEIKR
